Measurements taken from the nanobody polyreactivity screen of Harvey et al. (2022).

Assay: yeast display, Sf9 membrane polyspecificity reagent, FACS + sequencing; frameworks hold sequencing errors
In short: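 Using colony PCR, genes from sorted yeast display clones were amplified, then sequenced on MiSeq at 2 × 250 and filtered by CDR length. The clones had been stained with 10% biotinylated, detergent-solubilized Sf9 membrane reagent for 1 hour at 4 °C and sorted by FACS into low and high (top ~1%) gates on anti-HA and streptavidin fluorescence. Polyreactivity labels come from the gate of origin.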

Row | Sequence | polyreactivity (PSR sort gate)
1 | QVQLVESGGGLVQAGGSLRLSCAASGRIFYGNTMGWYRQAPGKERELVAAITWRGGSTYYADSVKGRFTISRDNAKITVYLQMNSLKPEDTAVYYCAAVSYRGRGYWGQGTQVTVSS | high polyreactivity
2 | QVQLVESGGGLVQAGGSLRLSCAASGRIFYGYAMGWYRKAPVKEREFVAAITVSAGSTYYADSVKGRFTISRDNAKNTVYLLMNSLKPEDTAVYYCASKRYVYPSYRFDYWGQGTQVSVSS | low polyreactivity
3 | QVQLVESGGGLVQAGGSLRLSCAASGRIFYGYAMGWYRQAPGKERELVAAISWRGDSTYYADSVKGRFTISRDNAKNTVYLQMNSLKPEDTAVYYCAARRPGYYYPSKFDYWGQGTQVTVSS | high polyreactivity
4 | QVQLVESGGGLVQAGGSLRLSCAASGRIFYGYAMGWYRQAPGKERELVAAITWIDGSTYYADSVKGRFTISRDNAKNTVYLQMNSLKPEDTAVYFCNKTWYGDSGTRTYWGQVTQVTVSS | low polyreactivity
5 | QVQLVESGGGLVQAGGSLRLSCAASGRIFYGYAMGWYRQAPGKERELVAAITYIGGPYYADSVKGRFTISRDNAKNTVYFQMNSQKPEDTAVYYCATEPFYTYGYYTYPYWYDYWGQGTQVTVSS | low polyreactivity
6 | QVQLVESGGGLVQAGGSLRLSCAASGRIFYGYTMGWYRQAPGKERELVASITIRGSRTYYADSVKGRFTISRDNAKNTVYLQMNSLKPEDTAVYSCAADFVPARTVHRYDYWGQGTQVTVSS | low polyreactivity
7 | QVQLVESGGGLVQAGGSLRLSCAASGRIFYHNAMGWYRQAPGKERELVAAIRWSGGSTYYADSEKGRFTISRDNAKNTVYLLMKSLKPEDTAVYYWATDVPIREIDEFGYWGQGTQVTVSS | low polyreactivity
8 | QVQLVESGGGLVQAGGSLRLSCAASGRIFYHYAMGWYRQAPGKERELVAAITSSGAGTYYADSVKGRFTISRDNAKNTVYLPMNSLKPEDTAVYYCAARRYAWLHSYDMYYWGHGTQVTVSS | high polyreactivity
9 | QVQLVESGGGLVQAGGSLRLSCAASGRIFYHYAMGWYRQAPGKERELVATINSSGTSTYYADSVKGRFTISRDNAKNTVYLQMNSLKPEDTALYYCAASTYNKMYYWGQGTHVTVSS | high polyreactivity
10 | QVQLVESGGGLVQAGGSLRLSCAASGRIFYINAMGWYRQAPGKEWELVAGITRSGGSTYYADSVKGRFTISRDNAKNTVYLQMNSLKPEDTAVYYCNAGRYARQHSRYDYWGQGTQVTVSS | high polyreactivity
11 | QVQLVESGGGLVQAGGSLRLSCAASGRIFYIYAKGWYRPAPGKERELVAASTNGGSTNYAHSVKGRFTISRDNAKNTVYLQMNSLKPEDTEVYYCATDYVGYSFGMYYWGEGTQVTVSS | low polyreactivity
12 | QVQLVESGGGLVQAGGSLRLSCAASGRIFYLYAMGWYRQAPGKERELVASINSGDSTHYADSVKGRFTISRDNAKNTVYLQMNSLKPEDTAVYYCATRRYTRSRWYDYWGQGTQVTVSS | low polyreactivity
13 | QVQLVESGGGLVQAGGSLRLSCAASGRIFYNYAMGWSRQAPGKERELVAAISGSGGSTYYADSVKGRFTISRDNAKNTVYLQMNSLKPEDTAVYYCSTSGPQYYSRNFDYWGQGTQVTVSS | low polyreactivity
14 | QVQLVESGGGLVQAGGSLRLSCAASGRIFYPNAMGWYRQAPGQERELVAAISLSAGSTYYADSVKGRFTISRDNAKNTVSLQMNSLKPEDTAVYYCATQGNSPRGTRRYGYWGQGTQVTVSS | high polyreactivity
15 | QVQLVESGGGLVQAGGSLRLSCAASGRIFYPYAMGWYRQAPGIERELVAAIDKGGGSTYYADSVKGRFSISRDNAKNTVYVQMNSLKPEDTAVYYCAAGWEYPYDYWGQGTQVTVSS | low polyreactivity
16 | QVQLVESGGGLVQAGGSLRLSCAASGRIFYPYAMGWYRQAPGKERELVAAINWSGDRTYYADSVKGRFTISRDNAKNTVYLQMNSLKPEDTAVYYCAAVYFTRSSGRRYDYWGQGTQVTVSS | high polyreactivity
17 | QVQLVESGGGLVQAGGSLRLSCAASGRIFYPYAMGWYRQAPGKERELVAAIRWGGGSTYADSVKGRFTISRDNAKNTVYLQMNSLKPEDTAVYYCAAKSYPYYGYPGAYDYWGQGTQVTVSS | low polyreactivity
18 | QVQLVESGGGLVQAGGSLRLSCAASGRIFYPYAMGWYRQAPGKERELVAAITSGGSTYYADSVKGRFTISRDNAKNTVYFQMNSLKPEDTAVYYCAADVVDLYLLDYWGQGTQVTVSS | low polyreactivity
19 | QVQLVESGGGLVQAGGSLRLSCAASGRIFYPYAMGWYRQAPGKERELVARITWTTTSTYYADSVKGRFTISRDNAKNTVYLQMNSLKPDDTAVYYCAADGRVRTWGNLRDYWGQGTQVTVSS | high polyreactivity
20 | QVQLVESGGGLVQAGGSLRLSCAASGRIFYPYAMGWYRQAPGTERELVAAISYSGGSTFYADSVKGRFTISRDNAKNTVYFQMNSLKPEDTAVYFCNKVWFARYWYRDFDYWGQGTQVTVSS | high polyreactivity
21 | QVQLVESGGGLVQAGGSLRLSCAASGRIFYPYSMGWYRQAPGKERELVAAIRRSGVDTYYADSVKGRFTISRDNAKNTVYLQMNSLKPEDTAVYYCAADPYWFFPHYDSWGQGTQVTVSS | low polyreactivity

Row | Sequence | polyreactivity (PSR sort gate)
22 | QVQLVESGGGLVQAGGSLRLSCAASGRIFYPYTMGWYRQAPGKERELVAAISSGSRTNYADSVKGRFTISRDNAKNTVYLQMNSLKPEDTAVYYCAAAAYSYKRVYQTFTFGYWGQGTQVTVSS | high polyreactivity
23 | QVQLVESGGGLVQAGGSLRLSCAASGRIFYPYVMGWYRQAPGKERELVAAISDSTGSTYYADSVKGRFTISRDNAKNTVYLQMNSLKPEDTAVYYCAAGWFYATYWRFYYWGQGTLVTVSS | low polyreactivity
24 | QVQLVESGGGLVQAGGSLRLSCAASGRIFYQNAMGWSRPAPGKERELVAGITRGGSTYYADSVKGRFTISRDNAKNTVYLQMNSLKPEDTAVYYCAVAFWRTKWYDYWGQGTQVTVSS | low polyreactivity
25 | QVQLVESGGGLVQAGGSLRLSCAASGRIFYQNAMGWYRPAPGKERELVADISSGGSTYYADSVKGRFTISRDNAKNTVYLQMNSVKPEDTAVYYCHTPSGPGTVGSYRRKWYGYWGQGTQVTVSS | low polyreactivity
26 | QVQLVESGGGLVQAGGSLRLSCAASGRIFYQYAMGWYRQAPGKEREFVAAISISGTSTYADSVKGRFTISRDNAKNTVYLQMNSLIPEDTAFYYCNVGPRAGWYRSNYDYWGQGTQVTVSS | low polyreactivity
27 | QVQLVESGGGLVQAGGSLRLSCAASGRIFYQYVMGWYRQAPGKDRELVAAISRRGGSTYYADSVKGRFTISRDNAKNTVYLQMNSLKPEDTAVYYCAARRRYRRHRYDYWGQGTQVTVSS | high polyreactivity
28 | QVQLVESGGGLVQAGGSLRLSCAASGRIFYRNAMGWYRQAPAKERELVAAISWSGGRTYYADSVKGRFTISRDNAKNTVYLQMNSLKPEDTAVYYCNARTGYYTGQYDYWGQGTQVTVSS | high polyreactivity
29 | QVQLVESGGGLVQAGGSLRLSCAASGRIFYRNAMGWYRQAPGKEREFVAAISSGGSTYYADSVKGRFTISRDNAKNTVYLQMNSLKPEDTAVYYCATRSPERRVYYTYSGLFDYWGQGTQVTVSS | high polyreactivity
30 | QVQLVESGGGLVQAGGSLRLSCAASGRIFYRNVMGWYRQAPGKERELVAAISYRGGSTSYADSVKGRFTISRDNAKNTVYLQMYSLKPEDTAVYYCNAGRIRPAYSDREYWGQGTQVTVSS | low polyreactivity
31 | QVQLVESGGGLVQAGGSLRLSCAASGRIFYRYALGWYRQAPGKERELVAVITSSGGRTYYADSVKGRFTISRDNAKNTVYLQMNSLKPEDTAVYYCAATPVGSHYGNYYWGQGTQVTVSS | high polyreactivity
32 | QVQLVESGGGLVQAGGSLRLSCAASGRIFYRYAMGWSRPAHGKERELVASISGSGGRTYYADSVKGRFTISRDNAKNTVYLQMNSLKPEDTAVSYCAARIRPSYDWGQGTQVTVSS | high polyreactivity
33 | QVQLVESGGGLVQAGGSLRLSCAASGRIFYRYAMGWYRQAPGKERELVAAISSGGSTYADSVKGRFTISRDNAKNTVYLQMNSLKPEDTAVYFCAARLYTYPKGKYWGQGTQVTVSS | high polyreactivity
34 | QVQLVESGGGLVQAGGSLRLSCAASGRIFYRYAMGWYRQAPGKERELVATISSGGSTNYADSVKGRFTISRDNAKNTVYLQMNSLKPEDTAVYYCARQSLRYSYVSRDYWGLGTQVTVSS | low polyreactivity
35 | QVQLVESGGGLVQAGGSLRLSCAASGRIFYRYAMGWYRQAPGKERELVATITNGGSTNYADSVKGRFTISRDNAMITVYLQMNSLKPEDTAVYYCAASRSRYSVNCYNYWGQGTQVTLSS | high polyreactivity
36 | QVQLVESGGGLVQAGGSLRLSCAASGRIFYSNDMGWYRQAPGKERELVAGINYDGGSTYYADSVKGRFTISRDNPKNTVYLQINSLKPEDTAVNYCNVRQVGWFNTPGDYWGQGTQVTVSS | low polyreactivity
37 | QVQLVESGGGLVQAGGSLRLSCAASGRIFYSYAMGWYRQAPGKERELVAAISFSVGSTYYADSVKGRFTISRDNAKNTVYLQMNSLKPEDTAVYYCATGWYYTSTTYRSSDFDYWGQGTQVTVSS | low polyreactivity
38 | QVQLVESGGGLVQAGGSLRLSCAASGRIFYSYAMGWYRQAPGKERELVAAITESGGSTNYADSVKGRFTISRDNAKNTVYLQMNSLKPEDTEVYYCNARYKLTFNLYNYWGQGTQETVSS | low polyreactivity
39 | QVQLVESGGGLVQAGGSLRLSCAASGRIFYSYAMGWYRQAPGKERELVATISSAGSTYYADSVKGRFTISRDNAKNTVYLQMNSLKPEDTAVYYCAARRPRRYGFWGQGTQVTVSS | high polyreactivity
40 | QVQLVESGGGLVQAGGSLRLSCAASGRIFYSYARGWYRQAPGKERELVAAITESGGSTNYADSVKGRFTISRDNAKNSVYLQMNSLKPEDSAVYYCNARYKLTFNLYNYRGQGTQVTVSS | low polyreactivity
41 | QVQLVESGGGLVQAGGSLRLSCAASGRIFYSYGMGWYRQAPGKERELVATISIGGSTNYADSVKGRFTISRDNAKNTVYLQMNSLKPEDTAVYYCAARGGTLYSTRSYGYWGQGTQVTVSS | high polyreactivity
